In patent US20230357422A1 (published 2023) one finds binding result and Kd data, which are given here for eleven molecules.

B1: GITR-his (receptor, human, UniProt Q9Y5U5 26-162, looked up)
chain: QRPTGGPGCGPGRLLLGTGTDARCCRVHTTRCCRDYPGEECCSEWDCMCVQPEFHCGDPCCTTCRHHPCPPGQGVQSQGKFSFGFQCIDCASGTFSGGHEGHCKPWTDCTQFGFLTVFPGNKTHNAVCVPGSPPAEP
notes: 'Human' heads the list '4-1BB-his, GITR-his, OX40-his, CD40-his' and is read as applying to all four; not shown: his tag
B2: OX40-his (receptor, human, UniProt P43489 29-216, looked up)
chain: LHCVGDTYPSNDRCCHECRPGNGMVSRCSRSQNTVCRPCGPGFYNDVVSSKPCKPCTWCNLRSGSERKQLCTATQDTVCRCRAGTQPLDSYKPGVDCAPCPPGHFSPGDNQACKPWTNCTLAGKHTLQPASNSSDAICEDRDPPATQPQETQGPPARPITVQPTEAWPRTSQGPSTRPVEVPGGRAVA
notes: 'Human' heads the list and is read as applying to all four proteins; not shown: his tag
B3: HZ-L-Yr-13&14-16-2 (Fc fusion)
chain: QVQLVESGGGVVQPGRSLRLSCAASGSTFSIVAMGWYRQAPGKGLELVASIITGDGDTNYADSVKGRFTISRDNSKNTMYLQMNSLRAEDTAVYYCYARTGYGSSWLMGHEYDYWGQGTQVTVSSTHTCPPCPAPEAAGGPSVFLFPPKPKDTLMISRTPEVTCVVVDVSHEDPEVKFNWYVDGVEVHNAKTKPREEQYNSTYRVVSVLTVLHQDWLNGKEYKCKVSNKALPAPIEKTISKAKGQPREPQVYTLPPSREEMTKNQVSLTCLVKGFYPSDIAVEWESNGQPENNYKTTPPVLDSDGSFFLYSKLTVDKSRWQQGNVFSCSVMHEALHNHYTQKSLSLSPG
B4: Hu-A-NA-19-1 (Fc fusion)
chain: EVQLVESGGGLVKPGGSLRLSCAASGAIFRINTGAWYRQAPGKQRELVASLTTYGKTTYADFVKGRFTISRDDSKNTLYLQMNSLKTEDTAVYYCHIGPEPRYGYWGQGTLVTVSSTHTCPPCPAPEAAGGPSVFLFPPKPKDTLMISRTPEVTCVVVDVSHEDPEVKFNWYVDGVEVHNAKTKPREEQYNSTYRVVSVLTVLHQDWLNGKEYKCKVSNKALPAPIEKTISKAKGQPREPQVYTLPPSREEMTKNQVSLTCLVKGFYPSDIAVEWESNGQPENNYKTTPPVLDSDGSFFLYSKLTVDKSRWQQGNVFSCSVMHEALHNHYTQKSLSLSPG
notes: also called HZ-A-Na-19-1
B5: Hu-A-NA-19-2 (Fc fusion)
chain: EVQLVESGGGLVKPGGSLRLSCAASGAIFRINTGAWYRQAPGKGLELVASLTTYGKTTYADFVKGRFTISRDDSKNTLYLQMNSLKTEDTAVYYCHIGPEPRYGYWGQGTLVTVSSTHTCPPCPAPEAAGGPSVFLFPPKPKDTLMISRTPEVTCVVVDVSHEDPEVKFNWYVDGVEVHNAKTKPREEQYNSTYRVVSVLTVLHQDWLNGKEYKCKVSNKALPAPIEKTISKAKGQPREPQVYTLPPSREEMTKNQVSLTCLVKGFYPSDIAVEWESNGQPENNYKTTPPVLDSDGSFFLYSKLTVDKSRWQQGNVFSCSVMHEALHNHYTQKSLSLSPG
notes: also called HZ-A-Na-19-2
B6: L-Yr-13&14-01 (Fc fusion)
chain: QVQLQESGGGLVQAGGSLRLSCAASGSFNAMGWWRQAPGKQREFVAIITRDGSTNLADSVKGRFTISSDNAKNTWFLQMNSLKPEDTAVYYCSASDYGSSLYYWGQGTQVTVSSTHTCPPCPAPEAAGGPSVFLFPPKPKDTLMISRTPEVTCVVVDVSHEDPEVKFNWYVDGVEVHNAKTKPREEQYNSTYRVVSVLTVLHQDWLNGKEYKCKVSNKALPAPIEKTISKAKGQPREPQVYTLPPSREEMTKNQVSLTCLVKGFYPSDIAVEWESNGQPENNYKTTPPVLDSDGSFFLYSKLTVDKSRWQQGNVFSCSVMHEALHNHYTQKSLSLSPG
B7: L-Yr-13&14-03 (Fc fusion)
chain: QVQLQESGGGLVQPGESLRLSCDSGRIFSYNFMGWYRQAPGKQRELVASITWGGTIKYADSVKGRFTISRHDAENTVYLQMNSLKSEDTAVYYCHAATDTGVIYWGQGTQVTVSSTHTCPPCPAPEAAGGPSVFLFPPKPKDTLMISRTPEVTCVVVDVSHEDPEVKFNWYVDGVEVHNAKTKPREEQYNSTYRVVSVLTVLHQDWLNGKEYKCKVSNKALPAPIEKTISKAKGQPREPQVYTLPPSREEMTKNQVSLTCLVKGFYPSDIAVEWESNGQPENNYKTTPPVLDSDGSFFLYSKLTVDKSRWQQGNVFSCSVMHEALHNHYTQKSLSLSPG
B8: L-Yr-13&14-06 (Fc fusion)
chain: QVQLQESGGGLVEAGGSLRLSCAASGSIFSINVMGWYRQAPGKQRELVAVITSDYSTNYADSVKGRFTISRDNAKNTVYLQMNSLKPEDTAVYHCAATGYGSSPWYWGQGTQVTVSSTHTCPPCPAPEAAGGPSVFLFPPKPKDTLMISRTPEVTCVVVDVSHEDPEVKFNWYVDGVEVHNAKTKPREEQYNSTYRVVSVLTVLHQDWLNGKEYKCKVSNKALPAPIEKTISKAKGQPREPQVYTLPPSREEMTKNQVSLTCLVKGFYPSDIAVEWESNGQPENNYKTTPPVLDSDGSFFLYSKLTVDKSRWQQGNVFSCSVMHEALHNHYTQKSLSLSPG
B9: A-Ye-22 (Fc fusion)
chain: QVQLQESGGGLVQAGGSLRLSCAASGFSLDYYAIGWFRQAPGKEREWVSCITASDSSAYYADSVKGRFTISRDNAKNTVYLRMNSLKPEDTAVYYCAAPRSDCFHYGENDYWGQGTQVTVSSTHTCPPCPAPEAAGGPSVFLFPPKPKDTLMISRTPEVTCVVVDVSHEDPEVKFNWYVDGVEVHNAKTKPREEQYNSTYRVVSVLTVLHQDWLNGKEYKCKVSNKALPAPIEKTISKAKGQPREPQVYTLPPSREEMTKNQVSLTCLVKGFYPSDIAVEWESNGQPENNYKTTPPVLDSDGSFFLYSKLTVDKSRWQQGNVFSCSVMHEALHNHYTQKSLSLSPG
B10: A-Ye-23 (Fc fusion)
chain: QVQLQESGGGLVQPGGSLRLSCAASGFSLGLYAIAWFRQAPGKEREWVSCIEKSDSSAYYADSVKGRFTVSRDNAKNTVDLQMNRLSPEDTAVYYCAAPQSDCFHYKENDYWGQGTQVTVSSTHTCPPCPAPEAAGGPSVFLFPPKPKDTLMISRTPEVTCVVVDVSHEDPEVKFNWYVDGVEVHNAKTKPREEQYNSTYRVVSVLTVLHQDWLNGKEYKCKVSNKALPAPIEKTISKAKGQPREPQVYTLPPSREEMTKNQVSLTCLVKGFYPSDIAVEWESNGQPENNYKTTPPVLDSDGSFFLYSKLTVDKSRWQQGNVFSCSVMHEALHNHYTQKSLSLSPG
B11: L-Yr-13&14-05 (Fc fusion)
chain: QVQLQESGGGLVQAGGSLRLSCAASGRTLSGYVMGWFRQASGKERELVAAISSGGSTYYEDSVKGRFTISRDNAKNTMYLQMNSLKPEDTAVYYCAADPRRLTGLYDYWGQGTQVTVSSTHTCPPCPAPEAAGGPSVFLFPPKPKDTLMISRTPEVTCVVVDVSHEDPEVKFNWYVDGVEVHNAKTKPREEQYNSTYRVVSVLTVLHQDWLNGKEYKCKVSNKALPAPIEKTISKAKGQPREPQVYTLPPSREEMTKNQVSLTCLVKGFYPSDIAVEWESNGQPENNYKTTPPVLDSDGSFFLYSKLTVDKSRWQQGNVFSCSVMHEALHNHYTQKSLSLSPG

T1 sequence (Q07011 24-255): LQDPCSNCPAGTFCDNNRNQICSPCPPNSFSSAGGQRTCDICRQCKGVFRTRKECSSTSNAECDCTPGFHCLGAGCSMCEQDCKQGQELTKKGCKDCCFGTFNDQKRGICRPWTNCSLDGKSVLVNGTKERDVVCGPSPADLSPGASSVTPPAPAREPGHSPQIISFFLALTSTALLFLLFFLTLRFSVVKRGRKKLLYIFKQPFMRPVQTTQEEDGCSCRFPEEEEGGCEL

One test deals with HZ-L-Yr-13&14-16-1. The experiment in a line: ELISA on coated his-tagged protein. Here is the method: Human 4-1BB-his, GITR-his, OX40-his, CD40-his proteins (purchased from ACRO) were dissolved according to the instructions, diluted to 1 μg/ml with ELISA coating solution (purchased from Shanghai Sangon), coated on ELISA plate at 100 allowed to stand overnight at 4° C., and washed for 3 times with PBST, 5% BSA (purchased from Shanghai Sangon) was added at 200 μl/well to block for 1 hour at room temperature. The coating solution was discarded, 4-1BB antibody diluted with 1% BSA was added at 100 200 nM in three replicate wells, and incubated at room temperature for 2 hours. Washing was performed with PBST for 3 times, and goat anti-human IgG-Fc-HRP (purchased from abcam) diluted with 1% BSA was added at 100 μl/well, and incubated at room temperature for 1 hour. Washing was performed 3 times with PBST, ELISA chromogenic solution (purchased from Solarbio) was added at 100 μl/well to react at room temperature for 3 minutes, ELISA stop solution (purchased from Solarbio) was added at 50 and the absorbance value at 450 nm was read.
For orientation: ELISA stands for enzyme-linked immunosorbent assay.
On to B1, for which the binding result is listed as “no binding (tested: 200 nM)”. B2: the binding result is “no binding (tested: 200 nM)”.

The next test addresses T1, human 4-1BB on CHO cells (human, UniProt Q07011 24-255).
T1 construct: whole, on cells; also called CHO-h4-1BB cells; human 4-1BB CHO-S cells
The experiment in a line: flow cytometry on CHO cells expressing human 4-1BB. Here is the method:
CHO cells overexpressing human 4-1BB (CHO-h4-1BB cells) were generated by transfection of pCHO1.0 vector (purchased from Invitrogen) encoding human 4-1BB cDNA cloned into MCS (multiple cloning site). The cell density of the expanded CHO-h4-1BB cells was adjusted to 2×10⁶ cells/ml, added at 100 μl/well to a 96-well flow plate, and centrifuged for later use. The purified 4-1BB antibody was diluted with PBS by 3-fold dilution starting from 400 nM for a total of 12 points. The above-mentioned diluted sample was added at 100 μl/well to the above-mentioned 96-well flow plate with cells, incubated at 4° C. for 30 min, and washed twice with PBS. Goat F(ab′)2 anti-human IgG-Fc (PE) (purchased from Abcam) diluted 100 times with PBS was added at 100 μl/well, incubated at 4° C. for 30 min, and washed twice with PBS. The cells resuspended with PBS was added at 100 μl/well, and detected on CytoFlex (Bechman) flow cytometer, and the corresponding MFI was calculated.
As to B3, the binding result is on record as “binds”. On the same count and under the same terms, the result for B4 reads “binds”; that for B5, “binds”.

Another test deals with T2, 4-1BB antigen (human, UniProt Q07011 24-186, limits assumed).
T2 construct: also called human 4-1BB antigen; human 4-1BB protein
T2 sequence (Q07011 24-186 limits assumed): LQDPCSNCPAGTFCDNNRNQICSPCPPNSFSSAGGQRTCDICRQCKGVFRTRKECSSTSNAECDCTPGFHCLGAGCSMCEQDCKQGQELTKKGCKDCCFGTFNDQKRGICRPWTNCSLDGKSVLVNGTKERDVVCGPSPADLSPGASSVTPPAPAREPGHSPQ
Briefly: BLI (ForteBio), antibody on AHQ sensor, 100 nM 4-1BB antigen, 1:1 model. Here is the method: ForteBio affinity determination was performed according to the existing method (Estep, P et al., Solution-based measurement of high-throughput antibody-antigen affinity and epitope classification, MAbs, 2013.5(2):p. 270-8). Briefly, the sensor was equilibrated offline for 30 min in the assay buffer, then the baseline was established by detection online for 60 s, and the purified antibody obtained as described above was loaded onto the AHQ sensor online. Then, the sensor was put into 100 nM 4-1BB antigen to act for 5 minutes, and the sensor was transferred to PBS and dissociated for 5 minutes. Analysis of kinetics was performed using a 1:1 binding model.
(BLI is a label-free optical method that tracks binding on a fibre tip over time.)
On to B6, for which binding was put at a Kd of 19.5 nM. In the case of B7, the Kd was 19.1 nM. Still for that read-out and setting: next, B8: 20.6 nM. On the same count and under the same terms, the result for B9 reads 22.6 nM. For B10, binding was characterised by a dissociation constant (Kd) of 23.4 nM. The Kd values of the last two molecules are within 1.5-fold of each other. Same read-out and setting: the result for B11 reads 33.5 nM.

Broadly, the Kd is the concentration at which binding is half-saturated.
